The target in one experiment is CTLA4 (human). Briefly: flow cytometry, CHO cells stably expressing CTLA4.
The target of a further experiment is PD-L1 (human). Put plainly: flow cytometry, CHO cells stably expressing PD-L1.
The target of another experiment is CD28 (human) (UniProt P10747). Briefly: flow cytometry, Jurkat cells (CD28).

Sequence of CTLA4 (human) (chain, as listed by the source): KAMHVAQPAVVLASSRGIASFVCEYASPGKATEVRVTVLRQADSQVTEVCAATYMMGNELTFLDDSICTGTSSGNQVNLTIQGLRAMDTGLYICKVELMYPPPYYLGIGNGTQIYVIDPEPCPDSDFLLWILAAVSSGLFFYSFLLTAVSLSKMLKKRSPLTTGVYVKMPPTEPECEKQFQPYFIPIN
Sequence of PD-L1 (human) (chain, as listed by the source): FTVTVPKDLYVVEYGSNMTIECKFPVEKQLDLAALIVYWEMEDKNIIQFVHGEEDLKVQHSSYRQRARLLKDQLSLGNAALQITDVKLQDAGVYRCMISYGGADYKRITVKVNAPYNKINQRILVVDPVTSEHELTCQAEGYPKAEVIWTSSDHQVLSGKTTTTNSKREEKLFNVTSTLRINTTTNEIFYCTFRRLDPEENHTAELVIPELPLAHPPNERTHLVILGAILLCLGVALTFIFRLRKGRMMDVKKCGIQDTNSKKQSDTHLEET

B1: CD80 variant H18Y/E35D/M47L IgV-Fc (Fc fusion)
chain: VIHVTKEVKEVATLSCGYNVSVEELAQTRIYWQKDKKMVLTMMSGDLNIWPEYKNRTIFDITNNLSIVILALRPSDEGTYECVVLKYEKDAFKREHLAEVT
Regarding B1, in the experiment with CTLA4 (human), the Fold change to WT CD80 was determined as 1.59 fold and the MFI at 33.3 nM came out at 284000 MFI. For the same molecule, in the experiment with PD-L1 (human), the Fold change to WT amounted to 5.56 fold and the MFI at 33.3 nM worked out at 44200 MFI. Moreover, in the experiment with CD28 (human), the Fold change to WT was determined as 0.66 fold and the MFI at 33.3 nM turned out to be 5070 MFI.

B2: CD80 variant E35D/M47I/E77A/L85Q/R94W IgV-Fc (Fc fusion)
chain: VIHVTKEVKEVATLSCGHNVSVEELAQTRIYWQKDKKMVLTMMSGDINIWPEYKNRTIFDITNNLSIVILALRPSDAGTYECVVQKYEKDAFKWEHLAEVT
Take B2: in the experiment with CTLA4 (human), the Fold change to WT CD80 was determined as 1.38 fold and the MFI at 33.3 nM came to 247000 MFI. Also, in the experiment with PD-L1 (human), the Fold change to WT is 8.12 fold and the MFI at 33.3 nM turned out to be 64500 MFI. In the experiment with CD28 (human), the Fold change to WT stood at 0.04 fold and the MFI at 33.3 nM was 272 MFI.

B3: CD80 variant V22A/E23D/Q33L/E35D/M47V IgV-Fc (Fc fusion)
chain: VIHVTKEVKEVATLSCGHNVSADELAQTRIYWLKDKKMVLTMMSGDVNIWPEYKNRTIFDITNNLSIVILALRPSDEGTYECVVLKYEKDAFKREHLAEVT
Consider B3, for which, in the experiment with CTLA4 (human), the Fold change to WT CD80 was determined as 0.02 fold and the MFI at 33.3 nM was 3640 MFI. In the experiment with PD-L1 (human), this molecule came in with a Fold change to WT of 9.51 fold and an MFI at 33.3 nM of 75500 MFI. Further, in the experiment with CD28 (human), the Fold change to WT came out at 0.04 fold and the MFI at 33.3 nM was determined as 274 MFI.

B4: CD80 variant E7D/E35D/M47I/L97Q IgV-Fc (Fc fusion)
chain: VIHVTKDVKEVATLSCGHNVSVEELAQTRIYWQKDKKMVLTMMSGDINIWPEYKNRTIFDITNNLSIVILALRPSDEGTYECVVLKYEKDAFKREHQAEVT
In the experiment with CTLA4 (human), B4 returned a Fold change to WT CD80 of 1.52 fold. Also, the figures for the MFI at 33.3 nM with CTLA4 (human), with PD-L1 (human) and with CD28 (human) were 271000 MFI, 14600 MFI and 273 MFI, respectively. Also, the figures for the Fold change to WT with PD-L1 (human) and with CD28 (human) were 1.84 fold and 0.04 fold, respectively.

B5: CD80 variant Q33L/E35D/M47I/L85Q IgV-Fc (Fc fusion)
chain: VIHVTKEVKEVATLSCGHNVSVEELAQTRIYWLKDKKMVLTMMSGDINIWPEYKNRTIFDITNNLSIVILALRPSDEGTYECVVQKYEKDAFKREHLAEVT
On to B5, for which, in the experiment with CTLA4 (human), the Fold change to WT CD80 turned out to be 0.11 fold and the MFI at 33.3 nM was found to be 20500 MFI. In the experiment with PD-L1 (human), this molecule had a Fold change to WT of 8.05 fold and an MFI at 33.3 nM of 63900 MFI. For the same molecule, in the experiment with CD28 (human), the Fold change to WT was 0.04 fold and the MFI at 33.3 nM came out at 287 MFI.

B6: CD80 variant H18L/V22A/E35D/M47L/N48T/L85Q IgV-Fc (Fc fusion)
chain: VIHVTKEVKEVATLSCGLNVSAEELAQTRIYWQKDKKMVLTMMSGDLTIWPEYKNRTIFDITNNLSIVILALRPSDEGTYECVVQKYEKDAFKREHLAEVT
Regarding B6, in the experiment with CTLA4 (human), the Fold change to WT CD80 is 2.09 fold and the MFI at 33.3 nM is 374000 MFI. In the experiment with PD-L1 (human), this molecule came in with a Fold change to WT of 12.3 fold and an MFI at 33.3 nM of 98100 MFI. Besides, in the experiment with CD28 (human), the Fold change to WT came to 0.06 fold and the MFI at 33.3 nM amounted to 434 MFI.

B7: CD80 variant Q33L/E35D/M47I/T62N/L85Q IgV-Fc (Fc fusion)
chain: VIHVTKEVKEVATLSCGHNVSVEELAQTRIYWLKDKKMVLTMMSGDINIWPEYKNRTIFDINNNLSIVILALRPSDEGTYECVVQKYEKDAFKREHLAEVT
In the case of B7, the Fold change to WT CD80 with CTLA4 (human) came to 0.01 fold. In addition, the MFI at 33.3 nM with CTLA4 (human) was found to be 1660 MFI; with PD-L1 (human), 72600 MFI; with CD28 (human) it was 284 MFI. Further, the Fold change to WT in the experiment with PD-L1 (human) is 9.14 fold; with CD28 (human), 0.04 fold.

B8: CD80 variant Q27H/Q33L/E35D/M47V/N55D/L85Q/K89N IgV-Fc (Fc fusion)
chain: VIHVTKEVKEVATLSCGHNVSVEELAHTRIYWLKDKKMVLTMMSGDVNIWPEYKDRTIFDITNNLSIVILALRPSDEGTYECVVQKYENDAFKREHLAEVT
In the experiment with CTLA4 (human), B8 had a Fold change to WT CD80 of 0.31 fold. Moreover, the MFI at 33.3 nM was 56100 MFI with CTLA4 (human), 14800 MFI with PD-L1 (human) and 269 MFI in the experiment with CD28 (human). Besides, the Fold change to WT with PD-L1 (human) came out at 1.86 fold; with CD28 (human) it was 0.04 fold.

B9: CD80 variant Q33K/E35D/D46V/L85Q IgV-Fc (Fc fusion)
chain: VIHVTKEVKEVATLSCGHNVSVEELAQTRIYWKKDKKMVLTMMSGVMNIWPEYKNRTIFDITNNLSIVILALRPSDEGTYECVVQKYEKDAFKREHLAEVT
As for B9, in the experiment with CTLA4 (human), the Fold change to WT CD80 came out at 0.05 fold and the MFI at 33.3 nM is 8510 MFI. In the experiment with PD-L1 (human), the Fold change to WT was 3.36 fold and the MFI at 33.3 nM is 26700 MFI. In the experiment with CD28 (human), this molecule came in with a Fold change to WT of 0.03 fold and an MFI at 33.3 nM of 257 MFI.

B10: CD80 variant A26E/E35D/M43T/M47L/L85Q/R94Q IgV-Fc (Fc fusion)
chain: VIHVTKEVKEVATLSCGHNVSVEELEQTRIYWQKDKKMVLTMTSGDLNIWPEYKNRTIFDITNNLSIVILALRPSDEGTYECVVQKYEKDAFKQEHLAEVT
In the experiment with CTLA4 (human), B10 came in with a Fold change to WT CD80 of 1.56 fold. Also, the MFI at 33.3 nM in the experiment with CTLA4 (human) came to 278000 MFI; with PD-L1 (human), 68100 MFI; with CD28 (human) it was 260 MFI. The Fold change to WT with PD-L1 (human) was 8.57 fold; in the experiment with CD28 (human), 0.03 fold.

B11: CD80 variant Y31S/E35D/M47L/T79L/E88G IgV-Fc (Fc fusion)
chain: VIHVTKEVKEVATLSCGHNVSVEELAQTRISWQKDKKMVLTMMSGDLNIWPEYKNRTIFDITNNLSIVILALRPSDEGLYECVVLKYGKDAFKREHLAEVT
B11 had a Fold change to WT CD80 with CTLA4 (human) of 0.01 fold. For the same molecule, the MFI at 33.3 nM worked out at 1100 MFI with CTLA4 (human), 38900 MFI in the experiment with PD-L1 (human) and 278 MFI with CD28 (human). For the same molecule, the figures for the Fold change to WT with PD-L1 (human) and in the experiment with CD28 (human) were 4.9 fold and 0.04 fold, respectively.

B12: CD80 variant Q33L/E35D/T41S/M47V IgV-Fc (Fc fusion)
chain: VIHVTKEVKEVATLSCGHNVSVEELAQTRIYWLKDKKMVLSMMSGDVNIWPEYKNRTIFDITNNLSIVILALRPSDEGTYECVVLKYEKDAFKREHLAEVT
As to B12, the Fold change to WT CD80 with CTLA4 (human) is 0.08 fold. The values for the MFI at 33.3 nM with CTLA4 (human), with PD-L1 (human) and with CD28 (human) were 14500 MFI, 43800 MFI and 287 MFI, respectively. Also, the Fold change to WT with PD-L1 (human) is 5.52 fold; with CD28 (human), 0.04 fold.

B13: CD80 variant Q33L/E35D/T41S/M43I IgV-Fc (Fc fusion)
chain: VIHVTKEVKEVATLSCGHNVSVEELAQTRIYWLKDKKMVLSMISGDMNIWPEYKNRTIFDITNNLSIVILALRPSDEGTYECVVLKYEKDAFKREHLAEVT
In the case of B13, in the experiment with CTLA4 (human), the Fold change to WT CD80 worked out at 0.04 fold and the MFI at 33.3 nM amounted to 6390 MFI. In addition, in the experiment with PD-L1 (human), the Fold change to WT was 5.66 fold and the MFI at 33.3 nM amounted to 44900 MFI. In the experiment with CD28 (human), this molecule showed a Fold change to WT of 0.06 fold and an MFI at 33.3 nM of 433 MFI.

B14: CD80 variant Q33L/E35D/M47V/L85Q IgV-Fc (Fc fusion)
chain: VIHVTKEVKEVATLSCGHNVSVEELAQTRIYWLKDKKMVLTMMSGDVNIWPEYKNRTIFDITNNLSIVILALRPSDEGTYECVVQKYEKDAFKREHLAEVT
In the case of B14, the Fold change to WT CD80 in the experiment with CTLA4 (human) is 0.42 fold. Also, the values for the MFI at 33.3 nM in the experiment with CTLA4 (human), with PD-L1 (human) and with CD28 (human) were 75400 MFI, 47400 MFI and 268 MFI, respectively. Further, the Fold change to WT with PD-L1 (human) stood at 5.97 fold; with CD28 (human), 0.04 fold.

For the origin of these results see US20250163127A1.
